In article PMC7367873, “Dissecting the sequence determinants for dephosphorylation by the catalytic subunits of phosphatases PP1 and PP2A” (Nature Communications, 2020):

B1: GEMIN4 (protein, UniProt P57678 1-1058, looked up)
Gem-associated protein 4: MDLGPLNICEEMTILHGGFLLAEQLFHPKALAELTKSDWERVGRPIVEALREISSAAAHSQPFAWKKKALIIIWAKVLQPHPVTPSDTETRWQEDLFFSVGNMIPTINHTILFELLKSLEASGLFIQLLMALPTTICHAELERFLEHVTVDTSAEDVAFFLDVWWEVMKHKGHPQDPLLSQFSAMAHKYLPALDEFPHPPKRLRSDPDACPTMPLLAMLLRGLTQIQSRILGPGRKCCALANLADMLTVFALTEDDPQEVSATVYLDKLATVISVWNSDTQNPYHQQALAEKVKEAERDVSLTSLAKLPSETIFVGCEFLHHLLREWGEELQAVLRSSQGTSYDSYRLCDSLTSFSQNATLYLNRTSLSKEDRQVVSELAECVRDFLRKTSTVLKNRALEDITASIAMAVIQQKMDRHMEVCYIFASEKKWAFSDEWVACLGSNRALFRQPDLVLRLLETVIDVSTADRAIPESQIRQVIHLILECYADLSLPGKNKVLAGILRSWGRKGLSEKLLAYVEGFQEDLNTTFNQLTQSASEQGLAKAVASVARLVIVHPEVTVKKMCSLAVVNLGTHKFLAQILTAFPALRFVEEQGPNSSATFMVSCLKETVWMKFSTPKEEKQFLELLNCLMSPVKPQGIPVAALLEPDEVLKEFVLPFLRLDVEEVDLSLRIFIQTLEANACREEYWLQTCSPFPLLFSLCQLLDRFSKYWQLPKEKRCLSLDRKDLAIHILELLCEIVSANAETFSPDVWIKSLSWLHRKLEQLDWTVGLRLKSFFEGHFKCEVPATLFEICKLSEDEWTSQAHPGYGAGTGLLAWMECCCVSSGISERMLSLLVVDVGNPEEVRLFSKGFLVALVQVMPWCSPQEWQRLHQLTRRLLEKQLLHVPYSLEYIQFVPLLNLKPFAQELQLSVLFLRTFQFLCSHSCRDWLPLEGWNHVVKLLCGSLTRLLDSVRAIQAAGPWVQGPEQDLTQEALFVYTQVFCHALHIMAMLHPEVCEPLYVLALETLTCYETLSKTNPSVSSLLQRAHEQRFLKSIAEGIGPEERRQTLLQKMSSF
B2: AP2A1 (protein, UniProt O95782 1-977, looked up)
AP-2 complex subunit alpha-1: MPAVSKGDGMRGLAVFISDIRNCKSKEAEIKRINKELANIRSKFKGDKALDGYSKKKYVCKLLFIFLLGHDIDFGHMEAVNLLSSNKYTEKQIGYLFISVLVNSNSELIRLINNAIKNDLASRNPTFMCLALHCIANVGSREMGEAFAADIPRILVAGDSMDSVKQSAALCLLRLYKASPDLVPMGEWTARVVHLLNDQHMGVVTAAVSLITCLCKKNPDDFKTCVSLAVSRLSRIVSSASTDLQDYTYYFVPAPWLSVKLLRLLQCYPPPEDAAVKGRLVECLETVLNKAQEPPKSKKVQHSNAKNAILFETISLIIHYDSEPNLLVRACNQLGQFLQHRETNLRYLALESMCTLASSEFSHEAVKTHIDTVINALKTERDVSVRQRAADLLYAMCDRSNAKQIVSEMLRYLETADYAIREEIVLKVAILAEKYAVDYSWYVDTILNLIRIAGDYVSEEVWYRVLQIVTNRDDVQGYAAKTVFEALQAPACHENMVKVGGYILGEFGNLIAGDPRSSPPVQFSLLHSKFHLCSVATRALLLSTYIKFINLFPETKATIQGVLRAGSQLRNADVELQQRAVEYLTLSSVASTDVLATVLEEMPPFPERESSILAKLKRKKGPGAGSALDDGRRDPSSNDINGGMEPTPSTVSTPSPSADLLGLRAAPPPAAPPASAGAGNLLVDVFDGPAAQPSLGPTPEEAFLSELEPPAPESPMALLADPAPAADPGPEDIGPPIPEADELLNKFVCKNNGVLFENQLLQIGVKSEFRQNLGRMYLFYGNKTSVQFQNFSPTVVHPGDLQTQLAVQTKRVAAQVDGGAQVQQVLNIECLRDFLTPPLLSVRFRYGGAPQALTLKLPVTINKFFQPTEMAAQDFFQRWKQLSLPQQEAQKIFKANHPMDAEVTKAKLLGFGSALLDNVDPNPENFVGAGIIQTKALQVGCLLRLEPNAQAQMYRLTLRTSKEPVSRHLCELLAQQF
B3: LIMA1 (protein, UniProt Q9UHB6 1-759, looked up)
LIM domain and actin-binding …: MESSPFNRRQWTSLSLRVTAKELSLVNKNKSSAIVEIFSKYQKAAEETNMEKKRSNTENLSQHFRKGTLTVLKKKWENPGLGAESHTDSLRNSSTEIRHRADHPPAEVTSHAASGAKADQEEQIHPRSRLRSPPEALVQGRYPHIKDGEDLKDHSTESKKMENCLGESRHEVEKSEISENTDASGKIEKYNVPLNRLKMMFEKGEPTQTKILRAQSRSASGRKISENSYSLDDLEIGPGQLSSSTFDSEKNESRRNLELPRLSETSIKDRMAKYQAAVSKQSSSTNYTNELKASGGEIKIHKMEQKENVPPGPEVCITHQEGEKISANENSLAVRSTPAEDDSRDSQVKSEVQQPVHPKPLSPDSRASSLSESSPPKAMKKFQAPARETCVECQKTVYPMERLLANQQVFHISCFRCSYCNNKLSLGTYASLHGRIYCKPHFNQLFKSKGNYDEGFGHRPHKDLWASKNENEEILERPAQLANARETPHSPGVEDAPIAKVGVLAASMEAKASSQQEKEDKPAETKKLRIAWPPPTELGSSGSALEEGIKMSKPKWPPEDEISKPEVPEDVDLDLKKLRRSSSLKERSRPFTVAASFQSTSVKSPKTVSPPIRKGWSMSEQSEESVGGRVAERKQVENAKASKKNGNVGKTTWQNKESKGETGKRSKEGHSLEMENENLVENGADSDEDDNSFLKQQSPQEPKSLNWSSFVDNTFAEEFTTQNQKSQDVELWEGEVVKELSVEEQIKRNRYYDEDEDEE
B4: SF3B2 (protein, UniProt Q13435 1-895, looked up)
Splicing factor 3B subunit 2: MATEHPEPPKAELQLPPPPPPGHYGAWAAQELQAKLAEIGAPIQGNREELVERLQSYTRQTGIVLNRPVLRGEDGDKAAPPPMSAQLPGIPMPPPPLGLPPLQPPPPPPPPPPGLGLGFPMAHPPNLGPPPPLRVGEPVALSEEERLKLAQQQAALLMQQEERAKQQGDHSLKEHELLEQQKRAAVLLEQERQQEIAKMGTPVPRPPQDMGQIGVRTPLGPRVAAPVGPVGPTPTVLPMGAPVPRPRGPPPPPGDENREMDDPSVGPKIPQALEKILQLKESRQEEMNSQQEEEEMETDARSSLGQSASETEEDTVSVSKKEKNRKRRNRKKKKKPQRVRGVSSESSGDREKDSTRSRGSDSPAADVEIEYVTEEPEIYEPNFIFFKRIFEAFKLTDDVKKEKEKEPEKLDKLENSAAPKKKGFEEEHKDSDDDSSDDEQEKKPEAPKLSKKKLRRMNRFTVAELKQLVARPDVVEMHDVTAQDPKLLVHLKATRNSVPVPRHWCFKRKYLQGKRGIEKPPFELPDFIKRTGIQEMREALQEKEEQKTMKSKMREKVRPKMGKIDIDYQKLHDAFFKWQTKPKLTIHGDLYYEGKEFETRLKEKKPGDLSDELRISLGMPVGPNAHKVPPPWLIAMQRYGPPPSYPNLKIPGLNSPIPESCSFGYHAGGWGKPPVDETGKPLYGDVFGTNAAEFQTKTEEEEIDRTPWGELEPSDEESSEEEEEEESDEDKPDETGFITPADSGLITPGGFSSVPAGMETPELIELRKKKIEEAMDGSETPQLFTVLPEKRTATVGGAMMGSTHIYDMSTVMSRKGPAPELQGVEVALAPEELELDPMAMTQKYEEHVREQQAQVEKEDFSDMVAEHAAKQKQKKRKAQPQDSRGGSKKYKEFKF
B5: DSG2 (protein, UniProt Q14126 50-1118, looked up)
Desmoglein-2: AWITAPVALREGEDLSKKNPIAKIHSDLAEERGLKITYKYTGKGITEPPFGIFVFNKDTGELNVTSILDREETPFFLLTGYALDARGNNVEKPLELRIKVLDINDNEPVFTQDVFVGSVEELSAAHTLVMKINATDADEPNTLNSKISYRIVSLEPAYPPVFYLNKDTGEIYTTSVTLDREEHSSYTLTVEARDGNGEVTDKPVKQAQVQIRILDVNDNIPVVENKVLEGMVEENQVNVEVTRIKVFDADEIGSDNWLANFTFASGNEGGYFHIETDAQTNEGIVTLIKEVDYEEMKNLDFSVIVANKAAFHKSIRSKYKPTPIPIKVKVKNVKEGIHFKSSVISIYVSESMDRSSKGQIIGNFQAFDEDTGLPAHARYVKLEDRDNWISVDSVTSEIKLAKLPDFESRYVQNGTYTVKIVAISEDYPRKTITGTVLINVEDINDNCPTLIEPVQTICHDAEYVNVTAEDLDGHPNSGPFSFSVIDKPPGMAEKWKIARQESTSVLLQQSEKKLGRSEIQFLISDNQGFSCPEKQVLTLTVCECLHGSGCREAQHDSYVGLGPAAIALMILAFLLLLLVPLLLLMCHCGKGAKGFTPIPGTIEMLHPWNNEGAPPEDKVVPSFLPVDQGGSLVGRNGVGGMAKEATMKGSSSASIVKGQHEMSEMDGRWEEHRSLLSGRATQFTGATGAIMTTETTKTARATGASRDMAGAQAAAVALNEEFLRNYFTDKAASYTEEDENHTAKDCLLVYSQEETESLNASIGCCSFIEGELDDRFLDDLGLKFKTLAEVCLGQKIDINKEIEQRQKPATETSMNTASHSLCEQTMVNSENTYSSGSSFPVPKSLQEANAEKVTQEIVTERSVSSRQAQKVATPLPDPMASRNVIATETSYVTGSTMPPTTVILGPSQPQSLIVTERVYAPASTLVDQPYANEGTVVVTERVIQPHGGGSNPLEGTQHLQDVPYVMVRERESFLAPSSGVQPTLAMPNIAVGQNVTVTERVLAPASTLQSSYQIPTENSMTARNTTVSGAGVPGPLPDFGLEESGHSNSTITTSSTRVTKHSTVQHSYS

Legend:
[1] = test system: GFP-14-3-3β and its binding proteins; assay: GFP-14-3-3β co-IP with LC-MS/MS label-free quantification, untreated versus PP1c-treated; design: species or system human
GFP-14-3-3β = GFP-14-3-3β co-IP with LC-MS/MS, untreated GFP-14-3-3β versus GFP control (14-3-3 interactome); type: binding, human
[2] = GFP-14-3-3β co-IP LC-MS/MS, PP1 vs untreated, student's t-test, label-free quantification, 3 replicates each
[3] = GFP-14-3-3β co-IP LC-MS/MS, untreated vs GFP, student's t-test, label-free quantification, 3 replicates each

Molecule | Difference (log2), PP1 vs untreated [1, 2] | Difference (log2), untreated vs GFP (GFP-14-3-3β; [3]) | also measured
B1 | – | – | Difference (log2), PP1 vs untreated ([1]; log2 difference, pairwise comparison PP1 vs untreated, label-free quantification, 3 replicates each): 1.751; Difference (log2), untreated vs GFP (GFP-14-3-3β; log2 difference, pairwise comparison untreated vs GFP, label-free quantification, 3 replicates each): 0.9703
B2 | – | – | Difference (log2), PP1 vs untreated ([1]; pairwise comparison PP1 vs untreated): -0.1358 log2; Difference (log2), untreated vs GFP (GFP-14-3-3β; pairwise comparison untreated vs GFP): 1.114 log2
B3 | -0.1559 log2 | -0.3717 log2 | –
B4 | -0.1579 log2 | 2.239 log2 | –
B5 | -0.1595 log2 | -0.9434 log2 | –
